Reference: the supplement of paper PMC10567573

B1: RPAIN (parent)
chain: ISEYEKSLQFDEKCLSIMLAEWEA
B2: PCMTD2 (parent)
chain: FFIRTSDSFDKFDFCEPSFVTGNC

Variants of: B1
Assay: protein stability index of a GFP-peptide fusion (GPS, HEK-293T) (PSI 1-6); higher = more stable
Details: c terminus: a fixed tail appended
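Further: lentivirally expressed fusions sorted by FACS into six bins by GFP to DsRed ratio, PSI derived from sequencing read proportions per bin multiplied by bin number.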

Protein stability index of substitutions, site by site:
I17: F 1.8; G 2.8; H 2.51; K 2.08; L 1.85; M 1.97; N 2.48; P 3.53; Q 2; R 2.15; S 2.08; T 2.12; V 2.38; W 1.47; Y 1.2
M18: A 1.86; C 1.81; D 3.26; E 1.84; F 2.5; G 3.33; H 2.41; I 1.4; K 2.19; L 2.18; N 2.13; P 4.27; Q 2.75; R 1.93; S 2.56; T 2.79; V 1.51; W 2.52; Y 2.39
L19: A 2.59; C 2.79; D 4.34; E 4.02; F 3.03; G 3.04; H 3.27; I 2.77; K 3.58; M 2.12; N 3.73; P 4.37; Q 3.6; R 2.39; S 3.4; T 3.18; V 2.64; W 2.5; Y 2.88
A20: C 1.77; D 1.91; E 1.98; F 1.54; G 2.01; H 1.64; I 1.48; K 1.64; L 1.4; M 2.49; N 1.44; P 3.02; Q 2.19; R 1.25; S 1.88; T 2.25; V 1.8; Y 2.08
E21: A 2.12; D 2.27; G 1.37; I 3.31; K 1.47; M 1.9; N 2.38; P 2.73; R 3.58; S 2.31; T 3.61; W 2.81; Y 1.93
W22: A 2.18; C 1.5; D 3.88; E 4.21; F 2.79; G 1.72; H 3.98; I 1.68; K 4.47; L 2.15; M 1.78; N 4.3; P 3.93; Q 3.08; R 3.37; S 2.11; T 2.03; V 1.52; Y 1.69
E23: A 3.07; C 1.87; D 1.62; F 2.53; G 4.39; H 2.59; I 2.4; K 2.53; L 1.83; M 2.36; N 2.14; P 1.65; Q 2.06; R 1.85; S 2.66; T 1.76; V 3.22; W 2.83; Y 1.61
A24: C 1.99; D 2.5; E 1.87; F 3.13; G 2.11; H 2.49; I 1.96; K 2.27; L 1.59; M 3.31; N 2.32; P 2.49; Q 2.54; R 1.73; S 1.72; T 2; V 1.91; W 1.59; Y 1.25

Variants of: B2
Assay: as above
Details: c terminus: a fixed tail appended

Protein stability index: each site, then its substitutions
D13: Y 1.6; L 3.27
P17: C 2.42
F14: K 1.99; D 2.42
D10: K 3.06; M 3.52
F9: H 2.24; R 1.7; L 2.12
I3: R 2.45; Y 1.81
C15: M 1.98; E 2.06
D7: Y 2.41
S8: T 1.61
E16: H 3.4
V20: L 3.22
T21: M 3.19; L 3.84; Y 2.49
F12: Q 1.69; M 2.05
G22: M 3.08
S18: G 2.81
F1: H 2.19
